From patent US5652133A, “Cloning and expression of the human macrophage inflammatory protein-1.alpha . α) /rantes receptor” (The United States of America as represented by the …, priority 1993, dated 1997)

B1: MIP-1β: recombinant human MIP-1β, diluted supernatant of Sf9 insect cells (clone pAT744) (protein, UniProt P13236 24-92, looked up)
C-C motif chemokine 4: APMGSDPPTACCFSYTARKLPRNFVVDYYETSSLCSQPAVVFQTKRSKQVCADPSESWVQEYVYDLELN
B2: NAP-2: recombinant human neutrophil activating peptide-2 (Bachem Bioscience) (protein, UniProt P02775 59-128, looked up)
Neutrophil-activating peptide …: AELRCMCIKTTSGIHPKNIQSLEVIGKGTHCNQVEVIATLKDGRKICLDPDAPRIKKIVQKKLAGDESAD
modifications: Neutrophil-activating peptide 2
B3: C5a: C5a, ligand tested in the oocyte calcium efflux screen (protein, UniProt P01031 678-751, looked up)
C5a anaphylatoxin: TLQKKIEEIAAKYKHSVVKKCCYDGACVNNDETCEQRAARISLGPRCIKAFTECCVVASQLRANISHKDMQLGR
modifications: C5a anaphylatoxin
notes: C5a, ligand tested in the oocyte calcium efflux screen

Tests used:
MIP-1α/RANTES receptor [1] = target: T1, MIP-1α/RANTES receptor (Homo sapiens, UniProt P32246); assay: Calcium efflux assay in Xenopus oocytes injected with MIP-1α/RANTES receptor cRNA; format: cell-based; conditions: for responsiveness of cRNA-injected oocytes to ligand (calcium efflux): oocytes injected with 10 ng receptor cRNA, IL-8, GRO-α, NAP-2 at 500 nM, MIP-1α/MIP-1β Sf9 supernatant 1:5, panel C ligands at 250 nM
T1 construct: I.D. No. 1; expressed in transfected cells; host or cells: Xenopus laevis oocytes microinjected with receptor cRNA
T1 sequence (P32246 1-355): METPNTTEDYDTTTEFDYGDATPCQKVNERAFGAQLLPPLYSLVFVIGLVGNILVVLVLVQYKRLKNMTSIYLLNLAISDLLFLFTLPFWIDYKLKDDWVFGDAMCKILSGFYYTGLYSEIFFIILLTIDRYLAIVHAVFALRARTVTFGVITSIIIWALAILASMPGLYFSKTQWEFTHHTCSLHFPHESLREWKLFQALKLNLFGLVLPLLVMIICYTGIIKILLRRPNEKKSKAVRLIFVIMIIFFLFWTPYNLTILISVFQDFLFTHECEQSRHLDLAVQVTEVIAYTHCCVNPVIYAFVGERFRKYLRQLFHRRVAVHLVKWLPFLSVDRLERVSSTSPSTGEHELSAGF
Method: (§1) The materials and methods used for the calcium efflux assay were as described in Murphy, et al., J. Immunol. 145:2227-2234 (1990). Adult female laboratory bred Xenopus laevis (Nasco, Fort Atkinson, Wis.) were maintained at 19° C. to 22° C. in a light-dark cycle of 12 h per phase. The frogs were anesthetized and ovarian lobes were resected and defolliculated in OR2 solution (82.5 mM NaCl, 1 mM MgCl2, 2.4 mM KCl, 5 mM HEPES, pH 7.5) containing 2 mg/ml collagenase for 2 h on a rotary shaker. Stage V-VI oocytes were transferred to ND96 solution (96 mM NaCl, 2 mM KCl, 1.8 mM CaCl2, 1 mM MgCl2, 2.4 mM sodium pyruvate, penicillin 100 U/ml, streptomycin 100 μg/ml, 5 mM HEPES, pH 7.4 to 7.5).
(§2) After 1-2 days, oocytes were microinjected with RNA samples in a total volume of 50 nl per oocyte and were then incubated in ND96 solution at 20° C. to 23° C. for 3 to 5 days. Oocytes were then incubated in 500 μl of OR2 medium containing ^45 Ca^2+ [50 μCi/ml (ICN Biomedicals, Costa Mesa, Calif.)] for 3 hours at 20° C. After ten washes with ND96 medium, individual oocytes were stimulated with ligand in wells of a 96-well tissue culture plate containing 100 μl of ND96 medium. Three 100 μl samples of the incubation medium were collected and analyzed by liquid scintillation counting: a) the final 100 μl wash (20 min) before application of ligand; b) fluid containing the stimulus, removed after a 20 min incubation with the oocyte; and c) the oocyte solubilized in SDS (1%) in medium 20 min after stimulation. Data are presented as the mean±standard error of the mean (SEM) of the percent of loaded ^45 Ca^2+ that was released by individual oocytes in response to the stimulus, or [(b-a).div.(b+c)]×100.
Ligands were all human recombinant material obtained from the following sources: MIP-1α (R and D Systems, Minneapolis, Minn.); IL-8, RANTES, and MCAF (Genzyme, Cambridge, Mass.); NAP-2 (Bachem Bioscience, Philadelphia, Pa.); GRO-α (a gift from M. P. Beckmann, S. Lyman and D. Cerretti). MIP-1α and MIP-1β used in a ligand screen was a gift of U. Siebenlist (NIAID, Bethesda, Md.) and were used as a diluted supernatant of Sf9 insect cells expressing immunoreactive recombinant human MIP-1α (from clone pAT464) or MIP-1β (from clone pAT744) that was prepared as described in Zipfel et al. J. Immunol. 142:1582-1590 (1989) and Zipfel et al. Lymph. Cyto. Res. 11:141-148 (1992). All proteins were diluted from aqueous stock solutions or culture supernatants into ND96 oocyte media (96 mM NaCl, […], pH 7.45) containing 0.1% bovine serum albumin.
Five days after injection with 10 ng of either MIP-1α/RANTES receptor cRNA (closed bars) or IL-8 receptor B cRNA (open bars), oocytes were stimulated with recombinant human IL-8, GRO-α or NAP-2 at 500 nM, or a 1:5 dilution of an Sf9 supernatant containing recombinant human MIP-1α or MIP-1β. […] Oocytes injected with 50 ng HL-60 RNA (closed circle) or 10 ng of MIP-1α/RANTES receptor cRNA (open circle) were stimulated with the indicated concentration of recombinant human MIP-1α. […] Oocytes were injected with either HL-60 RNA (open bars) or MIP-1α/RANTES receptor cRNA (closed bars) and stimulated with the indicated ligand at 250 nM. In panels A-C, the data derive from 5-8 replicate determinations per point.

IL-8 receptor B [2] = assay: Calcium efflux assay in Xenopus oocytes injected with IL-8 receptor B cRNA; format: cell-based, human; conditions: oocytes injected with 10 ng IL-8 receptor B cRNA; 1:5 dilution of Sf9 supernatant
Method: as §1
as §2, with “After ten washes with ND96 medium, individual oocytes were stimulated with ligand in wells of a 96-well tissue culture plate containing 100 μl of ND96 medium.” left out, “Data are presented as the mean±standard error of the mean (SEM) of the percent of loaded ^45 Ca^2+ that was released by individual oocytes in response to the stimulus, or [(b-a).div.(b+c)]×100.” left out

MIP-1α/RANTES receptor [3] = target: T1, MIP-1α/RANTES receptor; assay: Radioligand binding of 125I-MIP-1α to oocytes injected with MIP-1α/RANTES receptor cRNA
Method: Carrier free recombinant human MIP-1α 10 μg (Genzyme, Cambridge, Mass.) was labeled using 5 mCi Na^125 I (Amersham, Arlington Heights, Ill.) in 100 μl 0.2M sodium phosphate, pH 7.2 and 50 μl reconstituted Enzymobeads (BioRad, Richmond, AC). The reaction was started using 25 μl 1% β-D-glucose and allowed to continue for 20 minutes. Labeled sample was separated from the free iodine using a NAP-5 column (Pharmacia LKB, Piscataway, N.J.) which had been previously rinsed with 1% bovine serum albumin in 0.2M sodium phosphate, pH 7.2. Labeled material was collected from the column and analyzed on a 14% acrylamide gel. Single oocytes were incubated with ^125 I-MIP-1α for 30 min on ice in 10 μl of binding buffer (Hanks' balanced salt solution with 25 mM HEPES, 1% bovine serum albumin, pH 7.4). Unbound ligand was removed by centrifugation of the oocyte through 300 μl of F50 silicone fluid (General Electric, Waterford, N.Y.). The tubes were quickly frozen and gamma emissions from the amputated tips were counted.
Binding of ^125 I-labeled MIP-1α to oocytes injected with MIP-1α/RANTES receptor cRNA. (A) Total (closed circles) and non-specific binding (open circles) was determined by incubating oocytes injected with MIP-1α/RANTES receptor cRNA with the indicated concentration of ^125 I-labeled MIP-1α in the absence or presence of a 100 fold molar excess of unlabeled MIP-1α, respectively. […]

IL-8 receptor B [4] = assay: Radioligand binding of 125I-MIP-1α to oocytes expressing IL-8 receptor B; set-up: species or system human; conditions: single oocytes, 30 min on ice

| Molecule | responsiveness of cRNA-injected oocytes to ligand (calcium efflux) (MIP-1α/RANTES receptor [1]) | further results |
| --- | --- | --- |
| Nc1ncnc2c1ncn2[C@@H]1O[C@H](COP(=O)(O)OP(=O)(O)OP(=O)(O)O)[C@@H](O)[C@H]1O [ATP, reference compound] | inactive |  |
| CCCCC[C@H](O)/C=C/[C@H]1[C@H](O)CC(=O)[C@@H]1C/C=C\CCCC(=O)O [Prostaglandin E2, reference compound] | inactive |  |
| O=c1ccn([C@@H]2O[C@H](COP(=O)(O)OP(=O)(O)OP(=O)(O)O)[C@@H](O)[C@H]2O)c(=O)[nH]1 [UTP, reference compound] | inactive |  |
| CSCC[C@H](NC=O)C(=O)N[C@@H](CC(C)C)C(=O)N[C@@H](Cc1ccccc1)C(=O)O [f-met-leu-phe, reference compound] | inactive |  |
| NCCc1c[nH]cn1 [histamine, reference compound] | inactive |  |
| CCCCCCCCCCCCCCCCOCC(COP(=O)([O-])OCC[N+](C)(C)C)OC(C)=O (stereo not shown) [platelet activating factor, reference compound] | inactive |  |
| GROα: recombinant human GROα/melanoma growth stimulatory activity, α chemokine | not |  |
| IL-8: recombinant human interleukin-8, α chemokine (Genzyme) | not |  |
| MCP-1: human recombinant Monocyte Chemoattractant Protein-1 (MCAF, Genzyme) | not |  |
| MIP-1α: recombinant human Macrophage Inflammatory Protein-1α, β chemokine (R and D Systems; or Sf9 supernatant) | acquired responsiveness | concentration at which the first phase of the oocyte response appeared to saturate (MIP-1α/RANTES receptor [1]; calcium efflux, first phase): ~100 NM; concentration at which the second phase of the oocyte response did not reach a plateau (MIP-1α/RANTES receptor [1]; calcium efflux, second phase): > 5 µM; activation of IL-8 receptor B (calcium efflux) (IL-8 receptor B [2]): Neither MIPα nor MIP-1β activated |
| RANTES: recombinant human β chemokine, Regulated on Activation, Normal T Expressed and Secreted (Genzyme) | acquired responsiveness | EC50 (MIP-1α/RANTES receptor [1]; calcium efflux, oocytes injected with receptor cRNA): ~50 nM |
| ^125 I-MIP-1α: carrier free recombinant human MIP-1α (Genzyme) labeled with Na125I |  | threshold for detection of specific binding (MIP-1α/RANTES receptor [3]): the same as that required for stimulation of calcium efflux; specific binding to oocytes expressing IL-8 receptor B (IL-8 receptor B [4]): did not bind specifically; specific binding to oocytes expressing IL-8 receptor B (IL-8 receptor B [4]; listed as 125 I-labeled MIP-1α): undetectable |
| B1 | not | activation of IL-8 receptor B (calcium efflux) (IL-8 receptor B [2]): Neither MIPα nor MIP-1β activated |
| B2 | not |  |
| B3 | inactive |  |
